This is an account of results in US20220396624A1 (HC BIOPHARMA SHANGHAI, published 2022).

Assay [1] deals with T1, extracellular region of human PD-L1 protein (positions 19-238 of SEQ ID NO: 3) (human, UniProt Q9NZQ7 19-238).
T1 construct: also called Human PD-L1-his; antigen PD-L1
The experiment in a line: ForteBio Octet (BLI), antibody 20 nM, PD-L1 ECD from 30 nM in 3-fold dilutions. A general note: Biolayer interferometry detects binding as a change in optical thickness at a sensor tip.
Description: The murine antibody, chimeric antibody and humanized antibody of the present invention were dissolved in PBS to obtain 20 nM solutions.
The affinities of the antibody-antigen were determined using the ForteBio Octet as an affinity detection instrument.

For assay [2], the target named is T1, extracellular region of human PD-L1 …. The assay can be described thus: ForteBio Octet (BLI), antibody immobilized, PD-L1 ECD 6.25-200 nM; antibody after purification.
Description: (§1) A 96-well plate was obtained, and 200 μl SD buffer (1×PBS+0.02% Tween20+0.1% BSA) was added to each well, the plate was placed in ForteBio Octet and pre-circulated.
The antibody was immobilized and the concentration of the antibody after supernatant purification was 10 μg/ml.
In assay [3] the target is T2, human PD-L1 on 293T-h-PDL1 cells (human, UniProt Q9NZQ7 19-238). The assay can be described thus: FACS, purified antibody on 293T-h-PDL1 cells. (In general: Flow cytometry measures light scatter and fluorescence of single cells or particles in a stream.)
T2 sequence (Q9NZQ7 19-238): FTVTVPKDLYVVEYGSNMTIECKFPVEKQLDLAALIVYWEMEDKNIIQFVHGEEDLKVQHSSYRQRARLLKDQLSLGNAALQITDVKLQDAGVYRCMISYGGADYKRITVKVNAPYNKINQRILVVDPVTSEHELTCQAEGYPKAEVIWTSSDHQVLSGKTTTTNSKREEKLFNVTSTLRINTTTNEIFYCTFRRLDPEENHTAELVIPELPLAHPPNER
Description: (§2) Then 100 μl of flow cytometry buffer was added to each flow cytometry tube and resuspension was performed. […] Then 1 ml of flow cytometry buffer was added and centrifuged at 1200 rpm for 5 minutes at room temperature, the supernatant was discarded and the washing was repeated three times. 250 μl of flow cytometry buffer was added to each flow cytometry tube again, the pellet was resuspended and mixed. The resulting samples was detected by the machine.
Control tube 1 (no antibody and secondary antibody, only cell suspension was added) and control tube 2 (no antibody, only cell suspension and secondary antibody was added) were set.
Assay [4] deals with T2, human PD-L1 on 293T-h-PDL1 cells. The assay can be described thus: FACS, hybridoma culture supernatant on 293T-h-PDL1 cells.
Description: 1 ml of flow cytometry buffer was added to each flow cytometry tube and centrifuged at 1200 rpm for 5 minutes. The supernatant was discarded and the washing was repeated three times. At the same time, both control tube 1 (no culture supernatant and secondary antibody below, only the cell suspension was added) and control tube 2 (no culture supernatant, only cell suspension and secondary antibody below were added) were set.
as §2
Assay [5] has as its target T3, fusion protein of the extracellular region of human PD-L1 and human IgG1-FC (human, UniProt Q9NZQ7 19-238).
T3 construct: PD-L1 is put first by convention; also called fusion protein PD-L1 (hFC tag)
The experiment in a line: FACS blocking of PD-L1-hFc binding to 293T-h-PD1 cells, purified antibody.
Description: (§3) Each well was then washed twice by adding 400 μl FACS buffer, PE anti-human IgG Fc secondary antibody was added and incubated for 1 hour, after which each well was washed twice by adding 400 μl FACS buffer. Detection was performed.

Assay [6] deals with T1, extracellular region of human PD-L1 …. The assay can be described thus: ForteBio Octet (BLI), antibody immobilized, PD-L1 ECD 6.25-200 nM; culture supernatant.
Description: as §1
The target of assay [7] is T3, fusion protein of the extracellular …. The assay can be described thus: FACS blocking of PD-L1-hFc binding to 293T-h-PD1 cells, hybridoma supernatant.
Description: as §3

T1 sequence (Q9NZQ7 19-238): as above
T3 sequence (Q9NZQ7 19-238): as above

B1: murine antibody 14A7 (A1) (antibody, V domains shown)
VH: QVQLKQSGAELVRPGTSVKMSCKATEYTFTNNWIAWVKQRPGHGLEWVGDIHPGGGFTNYNEKFKVKATLTADTSSSTAYMQLRSLTSEDSAIYYCAGSKTRDYDAWFAYWGQGTLVTVSA
VL: DIVMTQAPSSLAVSVGEKVTLNCKSSQSLLYTGNQKNYLAWYQQKPGQSPKLLIYWASTRESGVPDRFTGSGSGTDFTLTISNVKAEDLAVYFCQQYYTYRTFGGGTKLEIK
notes: Mouse hybridoma antibody (subclone 14A7-4), tested as culture supernatant or purified from it; Only the variable domains are printed; also called 14A7-4
As for B1, the Kd in assay [1] came to 0.545 nM; in assay [2] it was 0.882 nM; in assay [6], 0.0557 nM. The koff was determined as 0.000359 s⁻¹ in assay [1], 0.000647 s⁻¹ in assay [2] and 2.78e-05 s⁻¹ in assay [6]. The EC50 in assay [3] was found to be 0.8 mg/L; in assay [4] it was 0.538 mg/L. Besides, the IC50 in assay [5] is 2.27 mg/L; in assay [7], 2.31 mg/L.

Usually Kd stands for the equilibrium constant for the complex coming apart. A higher Kd goes with a looser complex. The koff is a measure of how fast the partners let go of each other. A low value points to slow dissociation. In general, EC50 refers to the concentration that produces a half-maximal response. A high value points to a need for much substance. By IC50 is commonly meant the concentration that gives 50% inhibition. Higher therefore signals lower potency.
